Measured values published in the supplement of paper PMC12764529.
± gives the half width of the 95% confidence interval.

Key:
[1] = folding stability dG unfold from chymotrypsin proteolysis; higher = more stable
Method: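 Folding stability of de novo designed mini-proteins (<80 aa, no Cys; designed by TrROS, TrMRF, ProteinMPNN and the joint model) was measured by cDNA display proteolysis with trypsin and chymotrypsin. Each protease was used at 11 concentrations in a threefold dilution series plus a no-protease condition. K50 was inferred by Bayesian fitting of sequencing counts, and dG unfold was derived against a sequence-predicted unfolded-state K50 (Tsuboyama et al. method). Sequences shown include variable-length N-terminal GS-type padding (SAGGSAGG...) inside a display construct carrying a PA tag. Rows were kept only if the AF2 dimer inter-PAE was >15, to exclude likely homo-oligomers.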

[2] = folding stability dG unfold (combined trypsin and chymotrypsin); higher = more stable
Summary of the method: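 Unfolding free energy was derived, per protease or combined, against a sequence-predicted unfolded-state K50 and a shared folded-state K50, starting from K50 inferred by Bayesian fitting of sequencing counts. Digestion with trypsin and chymotrypsin was carried out on designed mini-proteins under 80 residues without cysteine in a PA-tagged cDNA display construct. Only designs with AlphaFold2 dimer inter-PAE above 15 were kept.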

Sequence | folding stability dG unfold [1] | folding stability dG unfold [2]
SAGGMRLEHLRNMIKNMPPGMKDVNINQHPGHGNYTFSVENPNKPVSIPFDSPEDQQEIQELAREYVKSAGG [r13_287_TrROS] | 0.19 ± 0.19 kcal/mol | -0.417 ± 0.29 kcal/mol
SAGGMTITLPKNMTKEELEALAKKLEEETGLKVTIEYNEETNEVTITVEGLSEEEQERIKKLLEEAASAGGS [r16_227_TrROS_Hall] | 3.49 ± 0.34 kcal/mol | > 6 kcal/mol
SAGGMTVTIESVERLPGGVEVRRMVIETLDPNNPTPSTVERELVTEFTPSVDPEGRPGRLARREEVLGSAGG [r13_612_JUSTAS] | 0.0887 ± 0.12 kcal/mol | -0.237 ± 0.15 kcal/mol
SAGGMVLEKKSPSGTTTKTVVEETPDELYVKTTTLKGKTPTTSESVIPAPPPPPLPFPSGRPEELQLLSAGG [r13_691_JUSTAS] | -0.632 ± 0.45 kcal/mol | < -1 kcal/mol
SAGGNITPNQAKRQAQEIADWLAQEYQQQNPDMKVKVDVEVDPPDGEIKVDGEWPNGRPMAEITIPVKSAGG [r13_247_TrROS] | -0.0106 ± 0.13 kcal/mol | -0.618 ± 0.24 kcal/mol
SAGGNRIPIPVKEIANNLNEEGWEIDEVEIYNPDDGEPKGTIPPGDPIEIPPNAPNMTIKPKIKPRKSAGGS [r8_243_TrROS] | 0.0841 ± 0.064 kcal/mol | -0.169 ± 0.13 kcal/mol
SAGGPEAKIEIYKLPDGYYFISVETPDNGKPMSIPIPPGEEKKIKIEPGAPIRDISIYPVKPGDPEAFSAGG [r13_122_TrROS] | 0.202 ± 0.33 kcal/mol | -0.158 ± 0.3 kcal/mol
SAGGPIVTSEVVETRPLPDGSTLVTVKTTKLLPLPVETTAPDGTVSPVPPGTPPVTVTETHLVVLEPSAGGS [r16_693_JUSTAS] | 0.684 ± 0.055 kcal/mol | 0.0694 ± 0.22 kcal/mol
SAGGPNMRTVTIEIPPENLKKDPDGEPYSAQDIAKHIAKHLPPDNVEIEIDKIDPDNGWFKVTIIVPSAGGS [r16_284_TrROS] | -0.0083 ± 0.2 kcal/mol | -0.514 ± 0.44 kcal/mol
SAGGPNPKTVEIPSPGTPEDVRARVEELAAELRPRGRPVTVTVTVGSTPRTLALAEVASVPPDATATVGSAG [r5_626_JUSTAS] | -0.933 ± 0.4 kcal/mol | < -1 kcal/mol
SAGGPPDKSVTVTVTDEKGNPITYPVTASKPVPVYLDDPEKKLEFTVPPDSDFTAPVPPGRVSVDLRSAGGS [r16_456_JUSTAS] | 0.637 ± 0.046 kcal/mol | 0.202 ± 0.12 kcal/mol
SAGGRIKIDIDPHPNEPGQPVMIKIKHPNGEREIPIPPNQSPEELKEAADDLAEENGFPIDDVEIHPSAGGS [r16_753_TrROS] | 0.661 ± 0.059 kcal/mol | 0.154 ± 0.16 kcal/mol
SAGGRVKVEIYNPDSGRPMEIEINPGNGTLEIRNPNNGEPVHEFPIPDIKEIEIPFSPNGILIKIEVDSAGG [r13_720_TrROS] | 0.281 ± 0.043 kcal/mol | -0.137 ± 0.33 kcal/mol
SAGGSAAPPFKVEIETEALPGPVVTRTIKVEPGSTVTIYDPGRDEALTFPVAPGTELVFTFDGTDASAGGSA [r15_224_TrMRF] | 0.849 ± 0.044 kcal/mol | 0.342 ± 0.1 kcal/mol
SAGGSAARVVEEIPGVGLLIAKPPTSDEPEIVLSLAELEEARRRSGVPPELAALIAANPDLTLELVSAGGSA [r15_359_JUSTAS] | -0.297 ± 0.43 kcal/mol | < -1 kcal/mol
SAGGSADFQVEVERDPNNGYYEIEVRYPNGMPVEIEYNPKKNKIEVKVTPGFPPSMAENAAEELLDSAGGSA [r15_511_TrROS] | 0.136 ± 0.058 kcal/mol | -0.535 ± 0.49 kcal/mol
SAGGSAEKKINSPEEIKRFAKELEKKGIKILSIDAVKFPSGPVVEYKMPVLHPENGKLSTLYIKSGSAGGSA [r15_123_TrMRF] | -0.352 ± 0.51 kcal/mol | < -1 kcal/mol
SAGGSAEKPPIKIEIDTETDPGNGMYEVSIPIRQKNGKPKGTIDIPFNTPQQAEDWLEDLGFDKIESAGGSA [r15_127_TrROS] | -0.865 ± 0.61 kcal/mol | < -1 kcal/mol
SAGGSAENLVRTTRTTEALPDGGTRTTTTTTLPGGLTVVTRPYYDPATGTTATTTTTLAPDETVTDSAGGSA [r15_917_JUSTAS] | 0.447 ± 0.05 kcal/mol | -0.0377 ± 0.16 kcal/mol
SAGGSAEPTGPPDVEVKRSTSVEGGLTLTPVTYTSPDNTETLVITYTTDPAGNLSSTTATVPPDLVSAGGSA [r15_986_JUSTAS] | 0.276 ± 0.36 kcal/mol | -0.00361 ± 0.28 kcal/mol
SAGGSAGEAEELAEAREAALRAALPPGTVVEVEVEVRVEREGDREEERVEVRVTVREPGTDRLLLESAGGSA [r15_915_JUSTAS] | 0.13 ± 0.18 kcal/mol | -0.173 ± 0.57 kcal/mol
